Measured values: patent US20100272685A1

Legend:
[1] = target: AAV2/po1 hybrid vector particle (AAVpo1 capsid of VP1, VP2, VP3) (porcine adeno-associated virus AAVpo1); assay: cell-based or functional assay
[2] = target: AAV2/5 vector particle (AAV5 capsid proteins VP1, VP2, VP3) (adeno-associated virus 5); assay: cell-based or functional assay

With “Pooled Human Ig (Immune Globulin Intravenous (Human) Carimune NF)” as the substance, how does the concentration of the pooled Human Ig required to neutralise >50% of AAV-LacZ particles [1] read?
The concentration of the pooled Human Ig required to neutralise >50% of AAV-LacZ particles was > 12 mg/mL.

And the concentration of the pooled Human Ig required to neutralise >50% of AAV-LacZ particles [2]?
The concentration of the pooled Human Ig required to neutralise >50% of AAV-LacZ particles was 7.5e-05 mg/mL.
